Results as given in patent US20150232562A1 (Ablynx, published 2015).

Molecular target: T1, recombinant human ErbB2/Fc chimera (human, UniProt P04626 23-652)
T1 construct: bought from R&D Systems; also called rhErbB2-Fc; rhErb2-Fc; Fc part of the bought chimera not given; not described
Assay: ELISA, coated ErbB2/Fc

Binder	binding result
22B71/1-114 (VHH, C-term myc-His6 tag) VHH: EVQLVESGGAFVQPGGSLRLSCAASGSDVWFNVMGWYRQGPGQQLELVASITYGGNINYGDPVKGRFSISRDNALKTVYLQMNSLKPEDTAVYYCYADLPSRLWGQGTQVTVSS	binds
22C51/1-121 (VHH, C-term myc-His6 tag) VHH: EVQLVESGGGLVQAGASLRLSCAASGRTFSRYDIGWFRQAPGKGREFVAAINWSGGTTSFGDSVKGRFTISRDNAKNTVYLQMNSLKPEDTAVYYCAALRSWPRGVDSGSWGQGTQVTVSS	binds
12D31/1-115 (VHH, C-term myc-His6 tag) VHH: EVQLVESGGGLVQPGGSLRLSCAASRNIFDFNDMGWYRQGPGKEREFVALINVGGVAKYEDSVKGRFTISRDNAENTVYLQMNNLKPEDMAVYYCNARILSRNYWGQGNQVTVSS	binds
11A71/1-125 (VHH, C-term myc-His6 tag) VHH: EVQLVESGGGLVQPGGSLRLSCAASRSIRSVSVMGWYRLAPGNQRELVATITADGITNYADSVKGRFTVSRDNGRNTVYLQMNSLKPEDTAVYYCNVDRLLYYSSGYYQTSVDVWGQGTQVTVSS	binds
13F101/1-124 (VHH, C-term myc-His6 tag) VHH: EVQLVESGGGLVQAGGSLRLSCQLSGGTVSDLHMGWFRQAPGKEREFVGFTRWPSITYIAEHVKGRFTISRDNAKNTVYLQMNSLEREDTAVYYCAADRSYSIDYRHPDSYSYWGQGTQVTVSS	binds
13G31/1-125 (VHH, C-term myc-His6 tag) VHH: EVQLVESGGGLVQAGGSLRLSCAASGGTFSRYKMGWFRQAPGKEREFVAASRWSGGIKYHADSVKGRFTISRDDAKNSIYLQMNTLKPEDTAVYYCAADDYLGGDNWYLGPYDSWGQGTQVTVSS	binds
12C111/1-123 (VHH, C-term myc-His6 tag) VHH: EVQLVESGGGLVQAGGSLRLSCAVSGLTFSSYAMGWFRQAPGKVREFVATISRSGGRTSYADSVKGRFIVSRDNAKNTADLQMNDLKPEDTAVYYCGASKWYGGFGDTDIEYWGQGTQVTVSS	binds
22B55/1-123 (VHH, C-term myc-His6 tag) VHH: EVQLVESGGGLVQAGGSLRLSCAVSGLTFSTYAMGWFRQAPGKVREFVATISRSGGRTSYADSVKGRFIVSRDNAKNTADLQMNELKPEDTAVYYCGASKWYGGFGDTDIEYWGQGTQVTVSS	binds
12D11/1-123 (VHH, C-term myc-His6 tag) VHH: EVQLVESGGGLVQTGGSLRLSCAASGRTFSGSRMGWFRQAPGKEREFVAAIRWSGGITWYAESVKSRFTISRDNTKNTIDLQINSLKPEDTAVYYCAADVIYKNIGSGSFDYWGQGTQVTVSS	binds
12D14/1-123 (VHH, C-term myc-His6 tag) VHH: EVQLVESGGGLVQAGGSLRLSCAASGRTFSGSRMGWLRQAPGKEREFVAAVRWSGGITWYAESVKGRFTISRDNTKNTIDLQINSLKPEDTAVYYCAADVIYKNIGSGSFDYWGQGTQVTVSS	binds
11B121/1-127 (VHH, C-term myc-His6 tag) VHH: EVQLVESGGGLVQPGGSLRLSCAASGSSASINTMGWYRQAPGEQRELVAEITEGGIINYTDSVKGRFTISRDNAKNTVYLEMNNLKPEDTAVYYCNADRALYRNYSDGRYYTGYDYWGQGTQVTVSS	binds
11B12/1-118 (VHH, C-term myc-His6 tag) VHH: EVQLVESGGGLVQAGGSLRLSCAASGRALINYAMGWFRQAPGKEREFVSAINWSGSHTDYGDSVKGRFAISRDNAKNTVYLQMHSLKPEDTAVYHCATGYSLPAFDSWGPGTQVTVSS	binds
12D92/1-123 (VHH, C-term myc-His6 tag) VHH: EVQLVESGGGLVQAGGSLRLSCAASGRTYNMAWFRQAPGKEREFVAAMNWSGGSTKYAESVKGRFTISRANDNNPLYLQMNTLKPEDTAVYYCAATNRWYTGVYDLPSRYEYWGQGTQVTVSS	binds
12C81/1-117 (VHH, C-term myc-His6 tag) VHH: EVQLVESGGGLVQPGGSLRLSCAGSGNIVRDNTMAWYRQAPGNQRDLVATINVGGGTYYAGPVKGRFTISRDNAKNSVYLQMNSLKPEDTSVYYCNVISGLVQRDYWGQGTQVTVSS	binds
22C65/1-124 (VHH, C-term myc-His6 tag) VHH: EVQLVESGGGLVQAGGSLRLSCAVSGFLFDSYAMGWFRQAPGKEREFVAAIRWSGSATDYSDSVKGRFTISRDNAKNTVYLQMNSLIPEDTAVYYCAARKTYRSLTYYGEYDSWGQGTQVTVSS	binds
12C121/1-126 (VHH, C-term myc-His6 tag) VHH: EVQLVESGGDLVQPGESLRLSCAVSGVTVDYSGIGWFRQAPEKEREAVSCIESGDGTTTYVDSVKGRFTISRDNAKNAVYLQMNSLKPEDTGVYYCATAVFVDSGDFSVCRGVGYWGKGTQVTVSS	binds
11A81/1-125 (VHH, C-term myc-His6 tag) VHH: EVQLVESGGALVQPGGSLRLSCAASDSIRSINIMGWYRQAPGKQREFVAAVTEDGSINYAESVKGRFTISRDKAKNALYLQMNSLKPEDMAVYYCNADRVLYYSDSRYYTGSNYWGQGTQVTVSS	binds
11B21/1-124 (VHH, C-term myc-His6 tag) VHH: EVQLVESGGGLVQAGGSLRLSCAASGRTFSMYLMGWFRQAPGKEREFVSTINRRGGNTYYADSVKGRFTISRDNARNTVYLQMNSLKPEDTAVYYCAAGGHLLGYDVQWEPDYWGQGTQVTVSS	binds
14H121/1-113 (VHH, C-term myc-His6 tag) VHH: EVQLVESGGGLVQPGGSLRLSCAASGITFRFKAMGWFRQGPGKRRELVARIAGGSTNYADSVKGRFTISRDDAKNTVFLQMNSLKPEDTAVYYCNVDGPFGNWGQGTQVTVSS	binds
13G61/1-118 (VHH, C-term myc-His6 tag) VHH: EVQLVESGGGVVQAGGSLRLSCAPSGRTFSSYVMGWVRQAPGKAREFVAGITRNSGRTRYADSVKGRFTISRDNADNTVTLQMNSLKPEDTAVYYCAGGIDLYTFHYFGQGTQVTVSS	binds

Results, then the binder that gave them:

binding result	Binder
binds	11A43/1-123 (VHH, C-term myc-His6 tag) VHH: EVQLVESGGGLVQAGGSLRLSCAASGSIFRVNHMGWYRQAPGKQREFVAAITSDHITWYADAVKGRFTISRDNAKNTVTLQMNSLRPEDTAVYYCAADPLLFYGVGSADVDYWGQGTQVTVSS
binds	11C11/1-121 (VHH, C-term myc-His6 tag) VHH: EVQLVESGGGLVQAGGSLRLSCAASGRTFSAYAMGWFRQAPGKERESVATIRWTGGSSSTSYADSVKGRFTISKNTAENTVYLQMNSLKPEDTAVYYCAVLLTVWDTYKYWGQGTQVTVSS
binds	11B71/1-126 (VHH, C-term myc-His6 tag) VHH: EVQLVESGGGLVQAGGSLRLSCAASGRTFERYAMGWFRQAPGKEREFVATISWSGGRDTVYADSVKGRFTISRDNAKNTVYLQMNSLKPEDTAVYYCAAHKRTYELGAHSTDFGSWGQGTQVTVSS
binds	11B51/1-127 (VHH, C-term myc-His6 tag) VHH: EVQLVESGGGLVQAGGSLRLSCAASGGTFSGRGMGWFRQAPGKEREFVAAVSWSGGNTYYADSVKGRFTISRDNAKSTVYLQMDSLKPEDTAVYYCAASRRFYSGLYYYTDDAYEYWGQGTQVTVSS
binds	13E61/1-123 (VHH, C-term myc-His6 tag) VHH: EVQLVESGGGLVQAGGSLRLSCTASGQTFNMGWFRQAPGKEREFVAAISWSQYNTKYADSVKGRFTISRDNAINSLYLQMDTLKPEDTAVYYCAATNRWFSAVYDLPSRYTYWGQGTQVTVSS
binds	21A121/1-123 (VHH, C-term myc-His6 tag) VHH: EVQLVESGGGLVQAGGSLRLSCTASGRAFNMGWFRQAPGKEREFVAGVNWGGGSTKVADSVKERFTISRDYDNSPVYLQMNTLKPEDTAVYYCAATSRWYSAVYDLPTRYDYWGQGTQVTVSS
binds	11B91/1-125 (VHH, C-term myc-His6 tag) VHH: EVQLVESGGALVQPGGSLRLSCAASGSIRSINTMGWYRQAPGNQREFVAAVTEGGTTSYAASVKGRFTISRDKAKNTVLLQMDSLKPEDTAVYYCNADRFLYYSAGRYDTGSDIWGQGTQVTVSS
binds	13G51/1-127 (VHH, C-term myc-His6 tag) VHH: EVQLVESGGGLVQAGGSLSLSCAASGGTFNGRAVGWFRQAPGEEREFVTGISWSGGSTDYADSVKGRFTISRDNSKNTVSLQMNSLKPEDTAVYYCAASRRFYSGLVYYSVDAYENWGQGTQVTVSS
binds	12C71/1-125 (VHH, C-term myc-His6 tag) VHH: EVQLVESGGGLVQAGGSLRLSCTASGGTFGSYALGWFRQSPGKERESVAAIDWDGSRTQYADSVKGRFTISRENVKDTMYLQMNSLQAEDTGVYYCVRSRHSGNTLSFSLKYDYWGQGTQVTVSS
binds	11B81/1-126 (VHH, C-term myc-His6 tag) VHH: EVQLVESGGGLVQAGGSLRLSCAASGRPVNNYIMGWFRQALGQGREFVAAINRNGATAAYADSVKGRFTISRDNAEDLLYLQMNLLKPEDTAVYYCAANSDSGFDSYSVWAAYEYWGQGTQVTVSS
binds	14H41/1-118 (VHH, C-term myc-His6 tag) VHH: EVQLVESGGGLVQAGGSLRLSCAPSGRTFSSYVMGWVRQAPGKAREFVAGITRNSIRTRYADSVKGRFTISRDNADNTVTLQMNSLKPEDTAVYYCAGGIDLYTFDYFGQGTQVTVSS
binds	22B85/1-120 (VHH, C-term myc-His6 tag) VHH: EVQLVESGGGLVRPGGSLRLSCATSGSDIGINAMGWYRQAPGNQRELVATITGSTGTTYADSVKGRFAISRDGAKNTVYLQMDSLKPEDTAVYYCNLRVYTGTYGGRNYWGQGTQVTVSS
binds	13E101/1-128 (VHH, C-term myc-His6 tag) VHH: EVQLVESGGGLVQAGGSLRLSCAVSGRTFNNDHMGWFRQAPGTERELVAATGRRGGPTYYADSVKGRFTISRDNAESTVYLQMNSLKAEDTAVYYCAANRYYCSTYGCLSTPRQYDYWGQGTQVTVSS
